Assay results taken from article PMC8741920.

What was measured:
[1] = target: recombinant soluble human FcRn with β2-microglobulin (sFcRn) (human) (UniProt P55899); experiment: SPR; pH 7.4
[2] = target: recombinant soluble human FcRn with β2-microglobulin (sFcRn) (human) (UniProt P55899); experiment: SPR; pH 6.0

Kd [1]	Kd [2]	Substance
893 nM	8 nM	anti-biotin IgG1-MST-HN (from UniProt P01857)
–	59.3 nM	anti-biotin IgG1-WT (from UniProt P01857)
